# Results taken from US12122830 (ABL BIO, dated 2024).
# Experiments:
# [1] = target: T1, mouse ROR1 expressed on the cell surface (CHO-mouse ROR1) (mouse, UniProt Q9Z139 30-937); experiment: flow cytometry on CHO cells transiently overexpressing mouse ROR1, FITC anti-human Fc detection, MFI ratio to 2nd Ab
# T1 construct: whole, on cells; Temporarily transfected CHO cells
# Experimental: For this experiment, the degree of binding of the anti-ROR1 antibody and ROR1 was measured by using FACSCalibur (BD Biosciences) device with the cell lines as follows, the cell lines artificially overexpressing the ROR1 protein by transfecting an ROR1 gene temporarily (CHO-human ROR1, CHO-human ROR2, CHO-mouse ROR1) or stably (MC38-human ROR1) (FIG. 5 and FIG. 7, respectively) or the cell lines expressing ROR1 (JeKo-1, Mino) (FIG. 6) or a cell line not expressing ROR1 (MCF7) (FIG. 6). […] JeKo-1, Mino, CHO-human ROR1, CHO-mouse ROR1 and MC38-human ROR1 are all cell lines expressing human ROR1 or mouse ROR1.
# Specifically, after disassociating each cell line and washing in PBS, the number of cells was counted and set as 2×10^5 cells/200 µl PBS, and then each ROR1 monoclonal antibody in Example 3 was prepared in 10 µg/mL or as 5 fold-diluted from 10 µg/mL, and was reacted at 4° C. for 1 hour. After reaction, cells were washed in PBS and then the FITC-labeled constant region (Fc)-specific antibody (Goat anti-human IgG FITC conjugate, Fc specific, Sigma, F9512, concentration: 2.0 mg/ml) was suspended in 2 µl/1×10^5 cells/200 µl PBS, and it was reacted at 4° C. for 1 hours. The confirmation of expression degree of human ROR1, human ROR2 and mouse ROR1 that were temporarily overexpressed was analyzed by using a commercially available antibody for FACS analysis (anti-ROR1: R&D Systems, FAB2000G, anti-ROR2: R&D, FAB20641P). After reaction, cells were washed in PBS and decoded by using a FACSCalibur device. The negative control group (2nd Ab) was treated only with the FITC-labeled constant region (Fc)-specific antibody. The result for the peak shift in the experimental group treated with each ROR1 monoclonal antibody was compared to the result for the shift in the control group (Mean Fluorescence Intensity Ratio, MFI Ratio: MFI of anti-ROR1/MFI of 2nd Ab).
# [2] = target: T2, recombinant mouse ROR1 protein (Acrobiosystems, RO1-M5221) (mouse, UniProt Q9Z139 30-406); experiment: ELISA, recombinant mouse ROR1 protein coated at 1 µg/ml, IgG titrated, HRP anti-Fab detection
# T2 construct: extracellular domain; Bought; also called mouse ROR1 antigen
# Experimental: The anti-ROR1 antibody-antigen binding affinity was estimated by using an ELISA-based solution binding test. Specifically, a 96-well microtiter plate (Nunc-Immuno Plates, NUNC) was coated with the ROR1 protein at a concentration of 1 µg/ml in a PBS solution as described below at 4° C. for 16 hours, and non-specific binding sites were blocked with 3% BSA (bovine serum albumin) for 2 hours. For this, as the ROR1 protein, in case of human ROR1, ROR1-Fc of Example 1 or recombinant ROR1-His (Sino Biological, 13968-H08H) was used. The ROR1-His used for ELISA was a protein of sino biological company (13968-H08H) as described in the above sentence, and ROR1-His of Example 1 or recombinant mouse ROR1 protein was used (Acrobiosystems, RO1-M5221-100 µg).
# Then, after adding the anti-ROR1 antibody prepared in Example 3 at the concentration described in FIG. 2 into the microtiter plate on a 96-well microtiter plate, the binding capacity was analyzed with ELISA as follows. Specifically, after constant temperature treatment for 2 hours, the plate was washed with PBS comprising 0.05% tween 20 5 times, and then a HRP-conjugated Fab multiclonal antibody reagent (Pierce, 31414) was diluted at 1:10,000 ratio, and was put into the washed microtiter plate, and it was incubated at 37° C. for 1 hour, and the ROR1 antibody bound to the plate was detected. After reaction, it was color-developed by using TMB (Tetramethylbenzidine, Sigma, T0440). The enzymatic reaction was stopped by 0.5 mol/L of sulfuric acid, and the absorbances at 450 nm and 650 nm were measured by using a micro plate reader device (molecular device) (450 nm-650 nm).
# T2 sequence (Q9Z139 30-406): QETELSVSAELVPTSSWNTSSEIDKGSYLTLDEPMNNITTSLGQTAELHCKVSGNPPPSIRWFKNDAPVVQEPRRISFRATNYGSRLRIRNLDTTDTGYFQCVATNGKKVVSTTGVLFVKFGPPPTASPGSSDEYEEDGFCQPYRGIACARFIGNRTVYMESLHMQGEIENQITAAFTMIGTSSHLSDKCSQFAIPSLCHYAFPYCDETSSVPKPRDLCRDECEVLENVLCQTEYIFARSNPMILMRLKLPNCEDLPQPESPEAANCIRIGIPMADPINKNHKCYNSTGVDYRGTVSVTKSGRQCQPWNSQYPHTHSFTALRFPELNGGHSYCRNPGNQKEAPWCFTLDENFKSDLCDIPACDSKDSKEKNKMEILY
# T1 sequence (Q9Z139 30-937): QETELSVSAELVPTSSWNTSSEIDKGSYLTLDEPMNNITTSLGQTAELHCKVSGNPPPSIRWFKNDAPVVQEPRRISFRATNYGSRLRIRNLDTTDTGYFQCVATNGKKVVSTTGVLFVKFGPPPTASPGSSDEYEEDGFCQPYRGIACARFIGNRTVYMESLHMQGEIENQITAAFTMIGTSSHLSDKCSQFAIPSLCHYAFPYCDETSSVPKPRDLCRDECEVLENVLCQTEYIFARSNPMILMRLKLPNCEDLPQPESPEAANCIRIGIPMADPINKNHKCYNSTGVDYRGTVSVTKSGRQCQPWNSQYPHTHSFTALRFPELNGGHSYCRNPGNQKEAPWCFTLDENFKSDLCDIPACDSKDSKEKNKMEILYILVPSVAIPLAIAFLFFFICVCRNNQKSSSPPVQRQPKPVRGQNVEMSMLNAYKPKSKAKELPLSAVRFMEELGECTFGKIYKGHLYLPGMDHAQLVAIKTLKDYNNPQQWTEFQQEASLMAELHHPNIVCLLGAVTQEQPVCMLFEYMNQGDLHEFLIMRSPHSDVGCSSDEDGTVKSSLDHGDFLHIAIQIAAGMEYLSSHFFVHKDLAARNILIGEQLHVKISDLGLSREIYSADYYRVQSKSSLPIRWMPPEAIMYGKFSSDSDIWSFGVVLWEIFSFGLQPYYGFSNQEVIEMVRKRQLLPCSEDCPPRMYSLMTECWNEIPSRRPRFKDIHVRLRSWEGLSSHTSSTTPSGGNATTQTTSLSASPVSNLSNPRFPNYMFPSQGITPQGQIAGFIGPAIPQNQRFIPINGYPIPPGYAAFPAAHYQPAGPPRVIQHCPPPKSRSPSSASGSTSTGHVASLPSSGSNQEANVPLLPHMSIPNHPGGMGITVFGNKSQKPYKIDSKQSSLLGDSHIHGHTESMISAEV
binding result [1],binding result [2],Binder
binds,binds,"A2F2 anti-ROR1 IgG antibody (antibody, V domains shown) VH: EVQLLESGGGLVQPGGSLRLSCAASGFTFSDYYMSWVRQAPGKGLEWVSSISPDGSNTYYADSVKGRFTISRDNSKNTLYLQMNSLRAEDTAVYYCAKNLRAFDYWGQGTLVTVSS VL: QSVLTQPPPASGTPGQRVTISCSGSSSNIGSNTVYWYQQLPGTAPKLLIYANSQRPSGVPDRFSGSKSGTSASLAISGLRSEDEADYYCGSWDYSLSGYVFGGGTKLTVLG"
binds,binds,"D2B12 anti-ROR1 IgG antibody (antibody, V domains shown) VH: EVQLLESGGGLVQPGGSLRLSCAASGFTFSNYDMSWVRQAPGKGLEWVSSISPSSGSSIYYADSVKGRFTISRDNSKNTLYLQMNSLRAEDTAVYYCAKAPGWCQAPSCYYDNAMDVWGQGTLVTVSS VL: QSVLTQPPSASGTPGQRVTISCSGSSSNIGNNDVSWYQQLPGTAPKLLIYDDSQRPSGVPDRFSGSKSGTSASLAISGLRSEDEADYYCGAWDDSLSGYVFGGGTKLTVLG"
binds,binds,"A2F3 anti-ROR1 IgG antibody (antibody, V domains shown) VH: EVQLLESGGGLVQPGGSLRLSCAASGFTFSSYDMSWVRQAPGKGLEWVSWISPGGGSKYYADSVKGRFTISRDNSKNTLYLQMNSLRAEDTAVYYCARVNGRFDYWGQGTLVTVSS VL: QSVLTQPPSASGTPGQRVTISCSGSSSNIGNNNVSWYQQLPGTAPKLLIYADSHRPSGVPDRFSGSKSGTSASLAISGLRSEDEADYYCATWDYSLSGYVFGGGTKLTVLG"
